Assay results reported in patent publication US20080274950A1 (BABRAHAM INSTITUTE, published 2008).
Changes are numbered by the printed parent chain. In names and notes the source's numbering stands.

How the values were obtained:
Assay in all cases: adhesion of K562 transfectants to coated N-cadherin Fc
[1] = molecular target: T1, wild type full length chicken N-cadherin expressed on stably transfected K562 cells (chicken, UniProt P10288 165-912)
T1 construct: whole, on cells; also called K562 transfectants (Wt); wild type cells
T1 sequence (looked up): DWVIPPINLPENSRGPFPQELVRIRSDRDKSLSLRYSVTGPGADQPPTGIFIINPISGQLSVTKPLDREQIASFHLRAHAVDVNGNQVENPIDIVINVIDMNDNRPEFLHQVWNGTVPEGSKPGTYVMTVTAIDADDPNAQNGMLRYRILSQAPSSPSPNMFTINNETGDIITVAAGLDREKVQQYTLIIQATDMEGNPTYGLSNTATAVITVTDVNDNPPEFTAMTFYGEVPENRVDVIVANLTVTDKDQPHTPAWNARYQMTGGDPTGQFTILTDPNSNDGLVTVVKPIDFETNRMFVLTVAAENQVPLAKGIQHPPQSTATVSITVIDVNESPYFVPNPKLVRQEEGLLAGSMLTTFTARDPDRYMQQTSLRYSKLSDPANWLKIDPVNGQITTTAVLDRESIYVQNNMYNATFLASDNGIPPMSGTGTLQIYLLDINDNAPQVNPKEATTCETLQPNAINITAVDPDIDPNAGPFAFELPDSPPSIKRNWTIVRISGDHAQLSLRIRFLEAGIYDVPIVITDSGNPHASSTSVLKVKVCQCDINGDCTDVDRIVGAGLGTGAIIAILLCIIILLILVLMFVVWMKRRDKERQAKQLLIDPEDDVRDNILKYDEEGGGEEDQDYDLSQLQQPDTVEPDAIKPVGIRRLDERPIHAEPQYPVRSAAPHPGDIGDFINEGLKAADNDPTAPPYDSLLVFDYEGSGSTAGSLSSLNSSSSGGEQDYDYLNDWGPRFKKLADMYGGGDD
Procedure: (§1) Adhesion tests were conducted substantially as described in Example 1. Briefly, K562 Cells or L cells transfected with wild type or mutant N-cadherin were allowed to settle for 45 minutes at 37° C. onto N-cadherin Fc fusion proteins coated at 1 μg/ml to a 96 well plate. Non-adherent cells were then washed off and residual adherent cells were quantitated by measuring acid phosphatase activity. Assays were conducted in quadruplicate and results are expressed as % cells adhering +/−SEM.

[2] = molecular target: T2, full length chicken N-cadherin with the mutation E89A expressed on K562 cells (chicken, UniProt P10288 165-912, E89A)
T2 construct: whole, on cells; also called cells expressing the E89A mutation; K562 E89A
T2 sequence (looked up): T1 sequence (looked up) with E89A
Procedure: as §1

[3] = molecular target: T3, full length chicken N-cadherin with the N-terminus extended by two glycine residues (GG) expressed on K562 … (chicken, UniProt P10288 165-912)
T3 construct: whole, on cells; also called cells expressing the GG N-terminal extension mutant; K562 GG
T3 sequence: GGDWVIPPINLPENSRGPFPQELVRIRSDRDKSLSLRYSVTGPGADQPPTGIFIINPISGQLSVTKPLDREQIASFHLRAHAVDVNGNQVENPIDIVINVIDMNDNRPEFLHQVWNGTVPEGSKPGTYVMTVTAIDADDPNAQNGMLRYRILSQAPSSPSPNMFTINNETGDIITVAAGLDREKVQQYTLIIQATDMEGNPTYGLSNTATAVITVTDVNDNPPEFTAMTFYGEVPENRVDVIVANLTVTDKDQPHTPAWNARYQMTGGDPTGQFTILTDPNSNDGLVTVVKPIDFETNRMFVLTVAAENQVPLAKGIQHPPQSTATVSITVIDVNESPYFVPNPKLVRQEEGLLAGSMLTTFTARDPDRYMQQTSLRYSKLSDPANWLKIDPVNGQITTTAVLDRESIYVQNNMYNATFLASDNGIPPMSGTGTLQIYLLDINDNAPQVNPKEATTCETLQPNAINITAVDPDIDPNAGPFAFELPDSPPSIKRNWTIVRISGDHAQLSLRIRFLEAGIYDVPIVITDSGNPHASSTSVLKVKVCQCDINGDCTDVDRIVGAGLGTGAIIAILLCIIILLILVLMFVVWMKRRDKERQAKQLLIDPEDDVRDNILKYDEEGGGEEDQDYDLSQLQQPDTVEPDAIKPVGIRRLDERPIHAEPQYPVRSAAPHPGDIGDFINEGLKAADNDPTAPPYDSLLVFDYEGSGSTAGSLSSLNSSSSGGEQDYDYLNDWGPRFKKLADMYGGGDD
Procedure: as §1

B1: chicken N-cadherin-Fc fusion protein with the mutation D134A, dimeric (Fc fusion, UniProt P10288 165-728, looked up)
chain: DWVIPPINLPENSRGPFPQELVRIRSDRDKSLSLRYSVTGPGADQPPTGIFIINPISGQLSVTKPLDREQIASFHLRAHAVDVNGNQVENPIDIVINVIDMNDNRPEFLHQVWNGTVPEGSKPGTYVMTVTAIAADDPNAQNGMLRYRILSQAPSSPSPNMFTINNETGDIITVAAGLDREKVQQYTLIIQATDMEGNPTYGLSNTATAVITVTDVNDNPPEFTAMTFYGEVPENRVDVIVANLTVTDKDQPHTPAWNARYQMTGGDPTGQFTILTDPNSNDGLVTVVKPIDFETNRMFVLTVAAENQVPLAKGIQHPPQSTATVSITVIDVNESPYFVPNPKLVRQEEGLLAGSMLTTFTARDPDRYMQQTSLRYSKLSDPANWLKIDPVNGQITTTAVLDRESIYVQNNMYNATFLASDNGIPPMSGTGTLQIYLLDINDNAPQVNPKEATTCETLQPNAINITAVDPDIDPNAGPFAFELPDSPPSIKRNWTIVRISGDHAQLSLRIRFLEAGIYDVPIVITDSGNPHASSTSVLKVKVCQCDINGDCTDVDRIVGAGLGT
notes: extracellular domain; also called D134A mutant; N-cadherin Fc mutant D134A; not shown: hinge region, CH2 and CH3 domains of human IgG1 heavy chain (vector pIgSig)
binding result [1]: no binding (tested: Fc fusion protein coated at 1 µg/ml) | binding result [2]: no binding (tested: Fc fusion protein coated at 1 µg/ml) | binding result [3]: no binding (tested: Fc fusion protein coated at 1 µg/ml)
